T1: bZIP25 DNA binding domain and leucine zipper region (V230-S322) (Arabidopsis thaliana (Mouse-ear cress), UniProt Q9M1G6)
T1 chain: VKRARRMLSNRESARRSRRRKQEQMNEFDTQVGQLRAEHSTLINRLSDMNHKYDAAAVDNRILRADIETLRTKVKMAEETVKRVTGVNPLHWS

B1: bZIP53 DNA binding domain and leucine zipper region (Y18-D116) (domain or fragment, Arabidopsis thaliana, UniProt Q9LZP8 18-116, looked up)
chain: YATVTDERKRKRMISNRESARRSRMRKQKQLGDLINEVTLLKNDNAKITEQVDEASKKYIEMESKNNVLRAQASELTDRLRSLNSVLEMVEEISGQALD
notes: An internal HindIII site of the amplicon was destroyed by site-directed mutagenesis; Measured monomer mass 12957 Da; In the protoplast reporter assays the full-length protein was expressed from a plasmid; also called basic leucine zipper 53; source: E. coli BL21 (DE-3), HPLC purified
B2: bZIP25 DNA binding domain and leucine zipper region (V230-S322) (domain or fragment, Arabidopsis thaliana, UniProt Q9M1G6 230-322, looked up)
chain: VKRARRMLSNRESARRSRRRKQEQMNEFDTQVGQLRAEHSTLINRLSDMNHKYDAAAVDNRILRADIETLRTKVKMAEETVKRVTGVNPLHWS
notes: In the protoplast reporter assays the full-length protein was expressed from a plasmid; source: E. coli BL21 (DE-3), HPLC purified
B3: bZIP39 DNA binding domain and leucine zipper region (V351-L442) (protein)
chain: VEKVVERRQRRMIKNRESAARSRARKQAYTVELEAELNQLKEENAQLKHALAELERKRKQQYFESLKSRAQPKLPKSNGRLRTLMRNPSCPL

Tests used:
[1] = CD thermal denaturation; protein alone, 2 µM dimer, ellipticity at 222 nm, heated from 6–85 °C, two-state fit; KD at 25 °C calculated from ΔGDi; dimer to monomers; conditions: other: CD thermal denaturation
[2] = molecular target: bZIP10 DNA binding domain and leucine zipper region (V216-S301) (Arabidopsis thaliana); assay: as above
[3] = molecular target: bZIP10 DNA binding domain and leucine zipper region (V216-S301) (Arabidopsis thaliana); assay: native MS; ESI-MS in unbuffered MS grade water, 2 µM homodimer, 4 µM heterodimer mixtures, samples kept at 23 ± 2 °C, ion spray interface temperature switched off, declustering potential 10 V
[4] = molecular target: Q9LZP8; assay: CD thermal denaturation; protein alone, 2 µM dimer, ellipticity at 222 nm, heated from 6–85 °C, two-state fit; KD at 25 °C calculated from ΔGDi; dimer to monomers; conditions: other: CD thermal denaturation
[5] = molecular target: the molecule itself; assay: as above
[6] = molecular target: the molecule itself; assay: native MS; ESI-MS in unbuffered MS grade water, 2 µM homodimer, 4 µM heterodimer mixtures, samples kept at 23 ± 2 °C, ion spray interface temperature switched off, declustering potential 10 V
[7] = molecular target: T1, bZIP25 DNA binding domain and leucine …; assay: CD thermal denaturation (222 nm) of equimolar mix versus sum curve, plus ESI-MS; absence of DNA; the paper concludes heterodimerization is DNA-mediated (synergistic reporter activation in protoplasts)
[8] = molecular target: Q9M1G6; assay: CD thermal denaturation; protein alone, 2 µM dimer, ellipticity at 222 nm, heated from 6–85 °C, two-state fit; KD at 25 °C calculated from ΔGDi; dimer to monomers; conditions: other: CD thermal denaturation
[9] = molecular target: Q9SJN0; assay: as above; conditions: other: CD thermal denaturation

Row | Molecule | dH (ΔHm, at Tm) [1] | Kd [5] | stoichiometry N [6] | other results
1 | bZIP72 DNA binding domain and leucine zipper region (D48-T150) | -57.3 kcal/mol |  |  | 
2 | bZIP10 DNA binding domain and leucine zipper region (V216-S301) | -41.1 kcal/mol |  |  | 
3 | bZIP10 DNA binding domain and leucine zipper region (V216-S301) (domain or fragment) |  |  |  | Kd [2]: 3 nM; stoichiometry N [3]: 2
4 | B1 |  | 50 nM | 2 | dH (ΔHm, at Tm) [4]: -35.5 kcal/mol; binding result [7]: no binding
5 | B2 |  | 0.05 nM | 2 | dH (ΔHm, at Tm) [8]: -55.3 kcal/mol
6 | B3 |  |  |  | dH (ΔHm, at Tm) [9]: -43.2 kcal/mol

Source: publication PMC5662769, “A-ZIP53, a dominant negative reveals the molecular mechanism of heterodimerization between bZIP53, bZIP10 and bZIP25 involved in Arabidopsis seed maturation” (Scientific Reports, 2017)
